Target: SARS-CoV-2 S trimer (stabilized S ectodomain, residues 1-1208, proline substitutions at 986 and 987, GSAS at … (SARS-CoV-2, Wuhan-Hu-1, proline substitution at residue 986 | proline substitution at residue 987 | …, biotin (EZ-Link Sulfo-NHS-LC-LC-Biotin) in the BLI experiments; not labelled for cryo-EM)
Experiment: BLI
Conditions: both partners purified

B1: human-mouse chimeric antibody 3C1 (c3C1) (antibody, V domains shown)
VH: EVQLQESGPSLVKPSQTLSLTCSVTGDSITNGYWNWIRKFPGNKLEYMGYISYSGSTYYSPSLKSRISITRDTSKNQHYLQLNSVTSEDTATYYCASDYHGSKYYFDYWGQGTTLTVSS
VL: DIVMTQSHKFMSTSVGHRVSITCKASQDVGNDVAWYQQKPGQSPKLLIYWASTRHTGVPDRFTGSGSGTDFTLTISNVQSEDLADYFCQQYNRYPYTFGGGTKLEIK
notes: also called chimeric MAb c3C1
Kd: < 1 pM

From paper PMC7801428 (Nature Communications, 2021)
